Source: paper PMC4990970

Key:
[1] = target: AtBAG5/Hsc70 complex (AtBAG5-long/Hsp70) (Arabidopsis thaliana | human) (UniProt O65373); assay: ITC; iTC200, room temperature, 20 mM Tris-HCl pH 7.5, 500 mM NaCl, 5 mM EGTA (apo-CaM, absence of calcium); 0.05-0.1 mM in the cell, 0.5-1.0 mM in the syringe
[2] = target: AtBAG5/Hsc70 complex (AtBAG5-long/Hsp70) (Arabidopsis thaliana | human) (UniProt O65373); assay: ITC; iTC200, room temperature, 20 mM Tris-HCl pH 7.5, 500 mM NaCl, 10 mM CaCl2 (holo-CaM, presence of calcium); 0.05-0.1 mM in the cell, 0.5-1.0 mM in the syringe

Kd [1]: 0.39 µM
Kd [2]: 21.2 µM
Substance: Calmodulin (CaM) (from UniProt P0DP23 1-149) (natural protein)
